One assay concerns the target inactive ERK2 (UniProt P63086). As to the kind of experiment: pull-down; 9 µg active phosphorylated (without or with 1 mM ATP) or inactive ERK2 covalently attached to CNBr-activated Sepharose, 3 µg purified arrestin in 60 µl of 50 mM Tris-HCl pH 7.4, 100 mM KCl, 1 mM EGTA, 1 mM DTT, 20 min at 30°C; two washes; bound arrestin quantified by Western blot. In general terms: Immunoblotting shows a protein as a band on a membrane.

Assay [1] addresses T1, active ERK2 phosphorylated at Thr183 and Tyr185 (PP-ERK2), P63086.
T1 chain: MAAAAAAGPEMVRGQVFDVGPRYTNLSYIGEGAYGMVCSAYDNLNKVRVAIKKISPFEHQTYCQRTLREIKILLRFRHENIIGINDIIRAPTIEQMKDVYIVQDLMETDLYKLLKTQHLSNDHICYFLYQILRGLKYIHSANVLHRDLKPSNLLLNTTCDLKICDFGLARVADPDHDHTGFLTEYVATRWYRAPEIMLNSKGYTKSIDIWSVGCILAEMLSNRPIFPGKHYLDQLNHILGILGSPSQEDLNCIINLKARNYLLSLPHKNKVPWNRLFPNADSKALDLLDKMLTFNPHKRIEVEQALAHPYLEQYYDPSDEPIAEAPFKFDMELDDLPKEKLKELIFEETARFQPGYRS
In words: pull-down on ERK2-Sepharose (CNBr-activated Sepharose with covalently attached ERK2), bound arrestin quantified by Western blot. The conditions noted are these: chain shown with the change, 9 µg immobilised ERK2, 3 µg arrestin in 60 µl, 50 mM Tris-HCl, pH 7.4, 100 mM KCl, 1 mM EGTA, 1 mM DTT, 20 min at 30°C, read off a plot.

The target of the next assay is T2, inactive ERK2, P63086.
T2 chain: T1 chain
The assay is described as above. The settings on record: chain shown with the change; no ATP; 9 µg immobilised ERK2, 3 µg arrestin in 60 µl; 50 mM Tris-HCl, pH 7.4, 100 mM KCl, 1 mM EGTA, 1 mM DTT; 20 min at 30°C; parent: est. 1.6; read off a plot.

Assay [2] concerns the target constitutively active MEK1, Q02750.

These results are taken from article PMC3236217.

Changes are numbered by the printed parent chain.

Molecule “arrestin-2 (from UniProt P17870 1-418) (natural protein)” displayed a binding to inactive ERK2 as percent of that to the active form with inactive ERK2 of 33%.

B1: arrestin-2, P17870 3A (protein)
chain: MGDKGTRVFKKASPNGKLTVYLGKRDFVDHIDLVEPVDGVVLVDPEYLKERRVYVTLTCAFRYGREDLDVLGLTFRKDLFVANVQSFPPAPEDKKPLTRLQERLIKKLGEHAYPFTFEIPPNLPCSVTLQPGPEDTGKACGVDYEVKAFCAENLEEKIHKRNSVRLVIRKVQYAPERPGPQPTAETTRQFLMSDKPLHLEASLDKEIYYHGEPISVNVHVTNNTNKTVKKIKISVRQYADICLFNTAQYKCPVAMEEADDTVAPSSTFCKVYTLTPFLANNREKRGLALDGKLKHEDTNLASSTLLREGANREILGIIVSYKVKVKLVVSRGGLLGDLASSDVAVELPFTLMHPKPKEEPPHREVPEHETPVDTNLIELDTNDDDAAAEDFARQRLKGMKDDKEEEEDGTGSPRLNDR
Take B1: the response in assay [1] (no ATP, parent: est. 4.6) amounted to 1.4 pmol; in assay [1] (with 1 mM ATP, parent: est. 3.0), 1.7 pmol; with inactive ERK2, P63086, 0.9 pmol.

B2: arrestin-2, P17870 1-418 (natural protein)
chain: B1 chain with A386I, A387V, A388F
B2: in assay [2], the increase of ERK2 phosphorylation (32P incorporation) by purified MEK1 in the presence of 4.4 pmol arrestin-2, against no arrestin came out at 33%.

B3: arrestin-3, P32120 1-420 (natural protein)
chain: MGEKPGTRVFKKSSPNCKLTVYLGKRDFVDHLDKVDPVDGVVLVDPDYLKDRKVFVTLTCAFRYGREDLDVLGLSFRKDLFIANYQAFPPTPNPPRPPTRLQERLLRKLGQHAHPFFFTIPQNLPCSVTLQPGPEDTGKACGVDFEIRAFCAKSLEEKSHKRNSVRLVIRKVQFAPEKPGPQPSAETTRHFLMSDRSLHLEASLDKELYYHGEPLNVNVHVTNNSTKTVKKIKVSVRQYADICLFSTAQYKCPVAQVEQDDQVSPSSTFCKVYTITPLLSNNREKRGLALDGKLKHEDTNLASSTIVKEGANKEVLGILVSYRVKVKLVVSRGGDVSVELPFVLMHPKPHDHIALPRPQSAATHPPTLLPSAVPETDAPVDTNLIEFETNYATDDDIVFEDFARLRLKGLKDEDYDDQFC
With B3, the increase of ERK2 phosphorylation (32P incorporation) by purified MEK1 in the presence of 4.4 pmol arrestin-3, against no arrestin in assay [2] came to 41%.
